Results from publication PMC12403049, “Structural basis of ClC-3 transporter inhibition by TMEM9 and PtdIns(3,5)P2” (Nature Structural & Molecular Biology, 2025).

Columns and labels:
[1] = biological target: the molecule itself; test: cryo-EM structure; ClC-3 alone, 3 mg/ml, no exogenous ligands, glyco-diosgenin, 50 mM Tris-HCl pH 8, 150 mM KCl, 2 mM DTT; C2 symmetry
[2] = biological target: the molecule itself; test: cryo-EM structure; ClC-3 co-expressed and co-purified with T9A, 5 mg/ml, no exogenous ligands, glyco-diosgenin, 50 mM Tris-HCl pH 8, 150 mM KCl, 2 mM DTT; four classes by 3D classification

| Protein | stoichiometry N [1] | stoichiometry N [2] |
| --- | --- | --- |
| human ClC-3 purified alone (C-terminal mCerulean tag removed) (natural protein, human ClC-3 (P51790), the long isoform used for structural analysis (proton glutamate E339); The cloning of a C-terminally tagged ClC-3 is not described elsewhere in the methods; Residues of the PreScission linker may be left after cleavage; also called ligand-free human ClC-3; not shown: mCerulean, C-terminal, cleaved) MESEQLFHRGYYRNSYNSITSASSDEELLDGAGVIMDFQTSEDDNLLDGDTAVGTHYTMTNGGSINSSTHLLDLLDEPIPGVGTYDDFHTIDWVREKCKDRERHRRINSKKKESAWEMTKSLYDAWSGWLVVTLTGLASGALAGLIDIAADWMTDLKEGICLSALWYNHEQCCWGSNETTFEERDKCPQWKTWAELIIGQAEGPGSYIMNYIMYIFWALSFAFLAVSLVKVFAPYACGSGIPEIKTILSGFIIRGYLGKWTLMIKTITLVLAVASGLSLGKEGPLVHVACCCGNIFSYLFPKYSTNEAKKREVLSAASAAGVSVAFGAPIGGVLFSLEEVSYYFPLKTLWRSFFAALVAAFVLRSINPFGNSRLVLFYVEYHTPWYLFELFPFILLGVFGGLWGAFFIRANIAWCRRRKSTKFGKYPVLEVIIVAAITAVIAFPNPYTRLNTSELIKELFTDCGPLESSSLCDYRNDMNASKIVDDIPDRPAGIGVYSAIWQLCLALIFKIIMTVFTFGIKVPSGLFIPSMAIGAIAGRIVGIAVEQLAYYHHDWFIFKEWCEVGADCITPGLYAMVGAAACLGGVTRMTVSLVVIVFELTGGLEYIVPLMAAVMTSKWVGDAFGREGIYEAHIRLNGYPFLDAKEEFTHTTLAADVMRPRRNDPPLAVLTQDNMTVDDIENMINETSYNGFPVIMSKESQRLVGFALRRDLTIAIESARKKQEGIVGSSRVCFAQHTPSLPAESPRPLKLRSILDMSPFTVTDHTPMEIVVDIFRKLGLRQCLVTHNGRLLGIITKKDILRHMAQTANQDPASIMFN | 2 | – |
| human ClC-3 purified in complex with T9A (N-terminal mCerulean tag removed) (natural protein, human ClC-3 (P51790), the long isoform used for structural analysis (proton glutamate E339); Residues of the PreScission linker may be left on the N-terminus after cleavage; PtdIns(3,5)P2 co-purified with the complex; also called ClC-3/T9A; ClC-3/noT9A; not shown: mCerulean, N-terminal, cleaved) MESEQLFHRGYYRNSYNSITSASSDEELLDGAGVIMDFQTSEDDNLLDGDTAVGTHYTMTNGGSINSSTHLLDLLDEPIPGVGTYDDFHTIDWVREKCKDRERHRRINSKKKESAWEMTKSLYDAWSGWLVVTLTGLASGALAGLIDIAADWMTDLKEGICLSALWYNHEQCCWGSNETTFEERDKCPQWKTWAELIIGQAEGPGSYIMNYIMYIFWALSFAFLAVSLVKVFAPYACGSGIPEIKTILSGFIIRGYLGKWTLMIKTITLVLAVASGLSLGKEGPLVHVACCCGNIFSYLFPKYSTNEAKKREVLSAASAAGVSVAFGAPIGGVLFSLEEVSYYFPLKTLWRSFFAALVAAFVLRSINPFGNSRLVLFYVEYHTPWYLFELFPFILLGVFGGLWGAFFIRANIAWCRRRKSTKFGKYPVLEVIIVAAITAVIAFPNPYTRLNTSELIKELFTDCGPLESSSLCDYRNDMNASKIVDDIPDRPAGIGVYSAIWQLCLALIFKIIMTVFTFGIKVPSGLFIPSMAIGAIAGRIVGIAVEQLAYYHHDWFIFKEWCEVGADCITPGLYAMVGAAACLGGVTRMTVSLVVIVFELTGGLEYIVPLMAAVMTSKWVGDAFGREGIYEAHIRLNGYPFLDAKEEFTHTTLAADVMRPRRNDPPLAVLTQDNMTVDDIENMINETSYNGFPVIMSKESQRLVGFALRRDLTIAIESARKKQEGIVGSSRVCFAQHTPSLPAESPRPLKLRSILDMSPFTVTDHTPMEIVVDIFRKLGLRQCLVTHNGRLLGIITKKDILRHMAQTANQDPASIMFN | – | 2 |
